Test results reported in the supplement of paper PMC12455559.
± gives the standard deviation of the averaged measurements.

Experiments:
[1] = melting temperature (DSF); higher = more thermostable
Outline: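 After expression in E. coli C41(DE3), the candidate enzymes were bound to nickel beads and released with SUMO protease. Their melting temperature was found by differential scanning fluorimetry with Sypro Orange on a Bio-Rad CFX96. Each sealed PCR plate well held 45 μL enzyme (0 to 0.3 mg/mL) plus 5 μL 5X dye, and fluorescence was read for 250 cycles from 25 °C at 0.3 °C per cycle (ramp 0.3 °C/s).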

[2] = PET hydrolysis, aromatic products released after 48 h (umol product/mg enzyme); higher = more PET depolymerization activity
Outline: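 Tagless, SUMO-cleaved candidate enzymes were purified on nickel beads, and 5 μg (50 μL) was added to 3.5 mg amorphous PET film or crystalline PET powder in 450 μL buffer. Buffers were 50 mM NaCitrate (pH 4.5, 5.5), 50 mM NaPhosphate (pH 6.5, 7.5) or glycine (pH 8.5). Sealed plates were incubated 48 h at 40 or 60 °C without shaking. PET hydrolysis activity is the aromatic product in the supernatant, read by absorbance at 260 and 280 nm against buffer blanks and expressed per mg enzyme.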

[3] = purified protein yield per well (BCA); higher = higher soluble expression
Outline: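 Expression was done in E. coli C41(DE3), using 2 mL autoinduction cultures with 100 µg/mL kanamycin incubated at 37 °C for 2 h and at 18 °C for 40 h. Protein was purified on Ni-charged magnetic beads and released by SUMO protease cleavage. Yield of purified protein per well was measured with the Pierce Rapid Gold BCA kit; values below 25 ug (0.1 mg/mL) are below detection.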

[4] = substrate: cryPow, 40 °C, pH 4.5
[5] = substrate: cryPow, 40 °C, pH 5.5
[6] = substrate: cryPow, 40 °C, pH 6.5
[7] = substrate: cryPow, 40 °C, pH 7.5
[8] = substrate: cryPow, 60 °C, pH 4.5
[9] = substrate: cryPow, 60 °C, pH 5.5
[10] = substrate: cryPow, 60 °C, pH 6.5
[11] = substrate: cryPow, 60 °C, pH 7.5
[12] = substrate: cryPow, 40 °C, pH 8.5
[13] = substrate: cryPow, 60 °C, pH 8.5
[14] = substrate: aFilm, 40 °C, pH 5.5
[15] = substrate: aFilm, 40 °C, pH 6.5
[16] = substrate: aFilm, 40 °C, pH 7.5
[17] = substrate: aFilm, 60 °C, pH 5.5
[18] = substrate: aFilm, 60 °C, pH 6.5
[19] = substrate: aFilm, 60 °C, pH 7.5
[20] = substrate: aFilm, 40 °C, pH 4.5
[21] = substrate: aFilm, 60 °C, pH 4.5

Row | Sequence | melting temperature [1] [C] | PET hydrolysis [2, 4] | PET hydrolysis [2, 5] | PET hydrolysis [2, 6] | PET hydrolysis [2, 7] | PET hydrolysis [2, 8] | PET hydrolysis [2, 9] | PET hydrolysis [2, 10] | PET hydrolysis [2, 11] | purified protein yield per well [3] [µg] | PET hydrolysis [2, 12] | PET hydrolysis [2, 13] | PET hydrolysis [2, 14] | PET hydrolysis [2, 15] | PET hydrolysis [2, 16] | PET hydrolysis ([2]; substrate: aFilm, 40 °C, pH 8.5) | PET hydrolysis [2, 17] | PET hydrolysis [2, 18] | PET hydrolysis [2, 19] | PET hydrolysis ([2]; substrate: aFilm, 60 °C, pH 8.5) | PET hydrolysis [2, 20] | PET hydrolysis [2, 21]
1 | ADNPYQRGPDPTLASVAASRGPFATTQATVPPGNGFNGGYVYYPTDTSLGTWGAVAIVPGYSALFANEEAWMGPWLASFGFVVLGIETNSRNDGADARATQLLAALDYLTQSSPVRNRVDPNRLSVMGHSAGGAGTLMAALRRPSLKTAVGLAPGAPGNSLNMSTTKVPTMLISGQNDGTVTPSYVQGIYNTLPASVEHAWAELAGNDHLSFTRPNPTEMRILIPWLKIFLDNDTRYTQFLCPLADSTGVSRYNSTCPLVPPGVPTSPPTTPPTSTPPPTGPPTSPPPPTTTPPPAGGACTATYRTVGSWSGGFQGEVTVTAGSAAINGWTVRLDLGGGQSISQVWNGTLSTSGSTATVRNVSYNGSLAAAGSTTFGFLGSGTPPAPTPTCTSP [ESM005] | 67 | < 3 | < 3 | < 3 | < 3 | < 3 | < 3 | < 3 | < 3 | 88.4 |  |  |  |  |  |  |  |  |  |  |  | 
2 | ADNPYQRGPDPTLASVAASRGTFATAQVNVPGGNGFASGVIYYPTDTTQGTFGAVAIVPGYSALFANEEAWMGPWLASFGFVVIGIETNSRTDSADARGTQLLAALDYLTQRSPVRDRVDPNRLSVVGHSAGGAGVLSAVVRRPSLKAAIGLAPGSPVGNYDLSTAKVPTMFISGQRDTTVTQSYLNGLYSTIPAALPSAWVEIAGVDHLFATRANNTEMRVLIPWLKIWLDNDTRYPQFLCPLMDSTNISMYRNKCPYVPPGGGPSPSPSATPSPSVTPSPSPSPSPSPSPSPSPTPTPGACTATYRTVNSWGGGYQGEVTVKAGASAVNGWTVRWTLNAGQTVSQVWNGTLSTSGSSVTVKNASYNGSLPPAGTTVFGFLANGTPATPALTCASP [ESM009] | 58.6 | < 3 | < 3 | < 3 | < 3 | < 3 | < 3 | < 3 | < 3 | 358 |  |  |  |  |  |  |  |  |  |  |  | 
3 | ADNPYQRGPDPTLASVSAQRGTFATAQVAVPAGDGFGGGMIYYPTDTSQGTFGAVAIVPGYTARFSVEEAWMGHWLASFGFVVIGVETNSTNDFDTARGTQLLAALDYLTQRSSVRDRVDASRQSVVGHSMGGGGALYAAGQRASLKAAVGLAPYKPSGNPTNVRVPTMIISGQNDTVVTPSYATGLYNTLPATTESAYMEFTGADHLFPTRANTLEMRILIPWLKIFVDSDNRYSQFLCPLQDSTGIRGYRSTCPFLPNPTTSPSTTAPTTPPTTPPTTPPTGACSATYRTVNSWPGGFQGEVTVSAGSTPVDGWAVRWTLASGQAVTQVWNGALSVSGSAVTVRNTTYNGSLGANASTTFGFLASGSPTPVSLTCTSP [ESM033] | 53.8 | 9 | 25 | 35 | 6 | < 3 | < 3 | < 3 | < 3 | 594 |  |  |  |  |  |  |  |  |  |  |  | 
4 | ADNPYQRGPDPTLASVSATRGTFATAQVSVPAGNGFASGVIYYPTDTSQGTFGGVAIVPGYSALFANEEAWMGPWLASFGFVVIGIETNSRTDSADARGTQLLAALDYLTQRSAVRDRVDPNRLSVIGHSAGGAGVLSALLRRPTLKAAVGLAPGSPVGDYSLYNDRVPTMFISGERDTTVTRSYLNGLYTTIPASTPSAWVEITGVDHLFATRANTTEMRVLIPWLKIFLDNDTRYTQFLCPQLADPGNVSMYRNKCPYVPPGGSSPSASPSTSPSASPSTSPSASPSVSPSPSPSPSPSASPSTSRACTASYRTVNSWSGGFQGEVTVTAGTSAINGWTVGWTLSGGQTINQLWNGTLSANGSAVRVTNVSYNGSIPASGSSTFGFLGTGTPSNPTLTCTSP [ESM040] | 59.8 | < 3 | < 3 | < 3 | < 3 | < 3 | < 3 | < 3 | < 3 | 526 |  |  |  |  |  |  |  |  |  |  |  | 
5 | ADNPYQRGPDPTNASIEAATGPFAVGTQPIVGASGFGGGQIYYPTDTSQTYGAVVIVPGFISVWAQLNWLGPRLASQGFVVIGIETSVITDLPDPRGDQALAALDWATTRSPVASRIDRTRLAAAGWSMGGGGLRRAALQRPSLKAIVGMAPWNGERNWSAVTVPTLFFGGSSDAVASPNDHAKPFYNSITRAEKDYIELRNADHFFPTSANTTMAKYFISWLKRWVDNDTRYTQFLCPGPSTGLFAPVSASMNTCPF [DP077] | 60.1 |  | 24 | 73 | 90 |  | 6 | 23 | 32 | 87 | 87 | 26 |  |  |  |  |  |  |  |  |  | 
6 | ADNPYQRGPDPTPAGVAASRGPFATAQTTVAPGNGFNGGTIYYPTDTSAGTWGAVAIVPGYTALFADEEAWMGPWLSSFGFVVIGIETNSRTDFDVARGTQLLAALDYLTQQSPVRDRVDTSRLSVIGHSMGGGGVVYATEHRPSLKAAVALAPFSPSQDMSTDRVPTMVMAGQNDTVVTPSYLDGLYATMPAATQSDFVQIAGADHVYYTHPQSTEMRILIPWLKIFVDNDTRYTQFLCPSLSDSSGISIYRSKCPYVPPGTSTTGGTTSGTTSGGTTTGGTTSGGTTTGGTTSGGTTSGGTSGSACTASYATVNTWSGGFQGEVTVTAGGKPVNGWTVRWTLAGGQGISQVWNGTVSTSGSDVSVRNVSYNGSLQPSTSTTFGFLGTGTPSDVSLSCTSP [ESM043] | 37 | 4 | 11 | 5 | < 3 |  |  |  |  | 31.4 |  |  |  |  |  |  |  |  |  |  |  | 
7 | ADNPYQRGPDPTPALVASVNGPFATASVSVPAGYGFGGGMIYYPTDTSQGTFGGIAISPGYTALFSAELAWMGPWLASHGFVVIGIETNNRNDFDEARGTQLLAALDYLTQQSPVRNRVDPNRLAVAGHSMGGGGALNAAIRRPSLKAAVGLAPFSPSSNLANDRVPTMVFSGQQDTVVTPSYVTGLYNSLPSTTQSAYLEIAGGDHGFPVGRPNQVMIRTMLPFVKIFVDYDTRYSPFLCPLSDTSGVVTYRSTCPLTPPGLPTTPPTTPPTTVPTSPPTGGPTTPPTTPSQPGGACTATYRTVNSWPGGFQGEVTVTAGNSAINGWTVRWTLDSGQAITQVWNGEVSTSGSTVSVRNAPYNGSLPPSGSTTFGFLSSGSPSSPSLTCTSP [DP059] | 74.2 |  | 5.5 ± 0.71 | 21.5 ± 3.5 | 35 ± 2.8 |  | 32.5 ± 2.1 | 47 ± 8.5 | 19.5 ± 3.5 | 255 | 32.5 ± 3.5 | 34 ± 1.4 | < 3 | < 3 | < 3 | < 3 | 2 ± 2.8 | < 3 | < 3 | < 3 |  | 
8 | ADNPYQRGPDPTPASIAADHGPFATAQTTIPKGNGLGGGIVYYPTDTSQGTFGAIAIAPGYGTEWRWYGWLGPRLASFGFVVVGIETNSLSDYADARADQLLAALDWLVTSSPVRDRVDRTRLAVGGHSMGGGGALVAATRRPSLRSAVGMAPYVPDGILRGTSVPTILFGGQADTTVTPAYLASAYATIPATVPRAYPEIAGEGHGFAAGGGGGNSGAFARVMMVWLKVFVDADTRYPPFLCPTLSNTSGISKYQASCPLGPGGTIPPPDTSRLANANAGRCLDASGAGTANGTKVILWTCNHGANQQWNRT [ESM139] | 65.5 | < 3 | < 3 | 1.5 ± 2.1 | 3.5 ± 0.71 | < 3 | < 3 | < 3 | < 3 | 305 |  |  | < 3 | < 3 | < 3 |  | < 3 | < 3 | < 3 |  | < 3 | < 3
9 | ADNPYQRGPDPTPASVGASRGTFATAQVSVPAGNGFGGGVIYYPTDTSQGRFGAVAVVPGYTATWAAEGAWMGPWLASFGFVVIGIDTNSRNDWDTARGTQLLAALDYLTQRSSVRDRVDASRAAVMGHSMGGGGAIYAALQRPSLKTTVGLAPFSASQTLNNMRVPTMLLAGQNDGTTTPASIRNYYGQVPSGVEKAYLELTGAGHGFPTSNNPTMMRNVIPWLKIFVDSDTRYTQFLCPLSNTNGIRSYESTCPLVPSPVPTDPPTSAPPTSTPPTTPPPTTPPPTTPAPGGPCAASYRTVNSWSGGFQGEVTVRAGGAPINGWTVRWTLGGGQSISQVWNGTLSTSGSTATVRNAPYNGSLPASGSTTFGFIANGSPSAPTLTCASP [TEP013] | 64 | < 3 | 5.5 ± 0.71 | 27 ± 1.4 | 53.5 ± 2.1 | < 3 | < 3 | 6 ± 1.4 | 10 ± 1.4 | 176 |  |  | < 3 | < 3 | < 3 |  | < 3 | < 3 | < 3 |  | < 3 | < 3
10 | ADNPYQRGPDPTPASVSANRGTFATAQISVPAGNGFGGGVIYHPTDTSQGTFGAIAVVPGYTATWAAEGAWMGHWLASFGFVVIGIDTNSRNDWDTARGTQLLAALDYLTQRSPVRDRVDANRTAVMGHSMGGGGAMHAALQRPSLKAAIGLAPFSPSQNLTTTRVPTMLLAGQSDTTTTPASILNLYNGIPAATEKAYLELTGAGHGFPTSNNPTMMRNVIPWLKIFVDSDTRYTQFLCSLSNWDGIRAYQSTCPLVPSPVPTTTSTTSTTTTISTTTTTPAPGDACSATYRTTNSWPGGYQAEVTVTAGNTAVNGWNVQWTLGSGQTVTQVWNGTLNVSGSTASVRNASYNGSLQANTSTTFGFIGGGTPPTSSLSCTSP [ESM035] | 57.4 | < 3 | < 3 | 7 ± 2.8 | 23.5 ± 0.71 | < 3 | < 3 | < 3 | < 3 | 510 |  |  | < 3 | < 3 | < 3 |  | < 3 | < 3 | < 3 |  | < 3 | < 3
11 | ADNPYQRGPDPTPQSISAPTGPFATASVTVPRQGNFGGGVIYYPTDTSQGTFGAVAISPGLNGTWPGIAWLGPRLSSQGFVVFGIDTLGLSDSTASRGSQLLAALDYLTQTSSVRTRVDSSRLAVAGHSMGGGGAFEAALRRPALKAAIPNAPFFPGSASNVRVPTLITAMQNDSLVGQNRNAYNGIPAGVEKAYVELAGAGHNQIGQPTTAIARNWIPWLKIFVDSDARYHQFLCPTTDMSGLSQYLNTCPLISTTPPTSSPSAQPTTPGPTGPPPGGACAATYRTVNSWSDGYQGEMTVQAGSSAINGWTVRWTMSGGQTISQVWNGTLVAGSGAAAVRNVAYNGSLAAGASTTFGFISSGTPSATSITCGSP [ESM081] | 68.2 | 4 | 17 | 45 | 82 |  |  |  |  | 182 |  |  |  |  |  |  |  |  |  |  |  | 
